Results: publication PMC3792052, “Structural Analysis of Intermolecular Interactions in the Kinesin Adaptor Complex Fasciculation and Elongation Protein Zeta 1/ Short Coiled-Coil Protein (FEZ1/SCOCO)” (PLoS ONE, 2013)
One block for each molecule: values may come before it.

Columns and labels:
[1] = target: 6xHis-FEZ1 (1-392) (human) (UniProt Q99689); assay: SAXS; complex formed by lysing the two E. coli pellets together, two-step co-affinity purification (6xHis, then GST); purified complex at 1.10 and 0.34 mg/mL in PBS, 20 °C; mass from I(0) against BSA
[2] = target: the molecule itself; assay: as above

stoichiometry N (GST-SCOCO per 6xHis-FEZ1 (2:2)) [1]: 1
Molecule: GST-SCOCO (2-82) (natural protein)

B1: 6xHis-FEZ1 (1-392) (natural protein, human, UniProt Q99689 1-392, looked up)
chain: MEAPLVSLDEEFEDLRPSCSEDPEEKPQCFYGSSPHHLEDPSLSELENFSSEIISFKSMEDLVNEFDEKLNVCFRNYNAKTENLAPVKNQLQIQEEEETLQDEEVWDALTDNYIPSLSEDWRDPNIEALNGNCSDTEIHEKEEEEFNEKSENDSGINEEPLLTADQVIEEIEEMMQNSPDPEEEEEVLEEEDGGETSSQADSVLLQEMQALTQTFNNNWSYEGLRHMSGSELTELLDQVEGAIRDFSEELVQQLARRDELEFEKEVKNSFITVLIEVQNKQKEQRELMKKRRKEKGLSLQSSRIEKGNQMPLKRFSMEGISNILQSGIRQTFGSSGTDKQYLNTVIPYEKKASPPSVEDLQMLTNILFAMKEDNEKVPTLLTDYILKVLCPT
notes: Predicted mass of the tagged protein printed as 48.8 KDa; also called fasciculation and elongation protein zeta 1; source: for SAXS cells lysed together with GST-SCOCO cells and co-purified (HiTrap chelating, then GST-Trap)
stoichiometry N [2]: 2
